In patent publication US7070969 (UNIVERSITY OF QUEENSLAND, dated 2006):

B1: Textilinin 1 (other)
chain: KDRPDFCELPADTGPCRVRFPSFYYNPDEKKCLEFIYGGCEGNANNFITKEECESTCAA
notes: also called Txln 1
B2: Textilinin 2 (other)
chain: KDRPELCELPPDTGPCRVRFPSFYYNPDEQKCLEFIYGGCEGNANNFITKEECESTCAA
notes: also called Txln 2

Experiments:
Human plasmin [1] = target: T1, Human plasmin (human, UniProt P00747 97-810); test: comparison of Table 3 Ki values; reference aprotinin (Willmott et al., 1995)
T1 construct: mature
T1 sequence (P00747 97-810): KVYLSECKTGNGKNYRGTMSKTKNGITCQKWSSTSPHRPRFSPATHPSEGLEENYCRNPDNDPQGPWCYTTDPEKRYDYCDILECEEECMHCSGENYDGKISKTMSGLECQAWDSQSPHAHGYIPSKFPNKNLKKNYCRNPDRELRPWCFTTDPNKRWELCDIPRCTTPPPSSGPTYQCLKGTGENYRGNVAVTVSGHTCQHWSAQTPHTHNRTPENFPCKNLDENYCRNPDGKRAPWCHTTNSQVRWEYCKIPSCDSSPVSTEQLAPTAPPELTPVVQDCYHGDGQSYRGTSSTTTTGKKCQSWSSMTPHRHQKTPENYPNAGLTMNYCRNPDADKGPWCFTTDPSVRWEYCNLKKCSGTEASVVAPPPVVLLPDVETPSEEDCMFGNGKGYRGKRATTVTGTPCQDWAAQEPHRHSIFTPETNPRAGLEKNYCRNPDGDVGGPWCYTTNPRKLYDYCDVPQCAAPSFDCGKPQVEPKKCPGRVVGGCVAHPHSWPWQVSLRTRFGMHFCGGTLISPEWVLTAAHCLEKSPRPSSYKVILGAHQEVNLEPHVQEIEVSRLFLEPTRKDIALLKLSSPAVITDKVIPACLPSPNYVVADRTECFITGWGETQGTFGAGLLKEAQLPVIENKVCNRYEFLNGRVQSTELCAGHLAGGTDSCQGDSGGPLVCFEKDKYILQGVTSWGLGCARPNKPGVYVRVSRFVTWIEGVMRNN

Human plasmin [2] = target: T1, Human plasmin; test: progress curves of S-2251 hydrolysis, 2 nM plasmin, n = 6, global fit to Eq. 1-3
Human plasmin [3] = target: T1, Human plasmin; test: progress curves of S-2251 hydrolysis, 18 nM plasmin, n = 6, global fit to Eq. 1-3
Human plasmin [4] = target: T1, Human plasmin; test: plasmin inhibition kinetics (kinetic profile)

Binder	fold difference of Ki against aprotinin (Human plasmin [1]) [fold]	Ki (Human plasmin [2]) [nM]	Ki (Human plasmin [3]) [nM]	Ki (Human plasmin [4]) [nM]
B1	~100	3.5	2.6	
B2	~100	2.2	2.8	2
